One substance from paper PMC3981467 can be followed below.

For this data set the following is noted: phosphorylation at S183.

On to p27/Kip1: S183A, for which the other result is given as “no change”.
